Data as given in US20250281611A1 (BIOSCEPTRE AUST, published 2025).

T1: CD19 (UniProt P15391 20-556, limits assumed)
T1 construct: whole, on cells; also called CD19 on JeKo-1
T1 sequence (looked up): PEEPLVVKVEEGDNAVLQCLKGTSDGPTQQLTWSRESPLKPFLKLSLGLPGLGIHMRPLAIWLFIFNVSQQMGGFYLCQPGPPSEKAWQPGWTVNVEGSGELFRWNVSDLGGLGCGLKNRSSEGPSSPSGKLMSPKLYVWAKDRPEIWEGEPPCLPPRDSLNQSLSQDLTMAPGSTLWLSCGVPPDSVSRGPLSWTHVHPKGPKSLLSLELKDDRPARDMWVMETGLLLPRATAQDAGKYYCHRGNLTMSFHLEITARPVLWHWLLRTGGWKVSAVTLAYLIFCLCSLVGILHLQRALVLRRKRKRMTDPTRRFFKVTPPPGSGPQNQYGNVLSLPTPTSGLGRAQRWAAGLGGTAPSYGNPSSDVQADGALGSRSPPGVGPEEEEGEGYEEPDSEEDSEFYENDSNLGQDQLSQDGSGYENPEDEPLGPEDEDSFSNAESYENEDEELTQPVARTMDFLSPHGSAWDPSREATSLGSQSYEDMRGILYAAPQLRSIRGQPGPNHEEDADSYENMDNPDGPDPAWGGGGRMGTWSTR


Experiments:
[1] = target: T1, CD19; experiment: flow cytometry, JeKo-1 cells, bridge at saturating conc., BIL03s-AF647 detection
Experimental: (§1) JeKo-1 cells were incubated with different CD19 BRiDGE variants at saturating concentrations. […] The MFI intensity correlates with the number of secondary bound antibodies bound to the CD19 BRiDGE variants that are only detected if they are bound to the JeKo-1 cells. MFI: median fluorescence intensity. BLitz: Bio-Layer interferometry (BLI) technology using HIS-tag identification tips. […] The higher the MFIR, the stronger the binding.

[2] = target: T2, nfP2X7 CAR 1; experiment: flow cytometry, nfP2X7 CAR 1 T cells (EGFR+ gate), anti-His-FITC detection
T2 construct: CAR-positive cells gated by the co-expressed EGFR marker; also called nfP2X7 targeted CAR; nfP2X7 CAR on EGFR+ T cells
Experimental: (§2) nfP2X₇ CAR T cells were incubated with different BRiDGE variants at saturating concentrations. […] The MFI intensity correlates with the number of secondary bound antibodies bound to the BRiDGEs that are only detected if they are bound to the CAR T cells. EGFR was used as a marker gene to detect the CAR expression. Thus, the EGFR+ T cell population was defined as the CAR expressing cells and the EGFR− T cell population was defined as the CAR negative subset. MFI: median fluorescence intensity. EGFR: epidermal growth factor receptor. BLItz: Bio-Layer interferometry (BLI) technology using HIS-tag identification tips. HIS-tag MFI Ratio: relative index that is calculated by the testing condition MFI divided by the control MFI, which corresponds to the MFI measured on EGFR+ T cells (defined as CAR positive cells) divided by the MFI measured on the EGFR− T cells (defined as CAR negative cells). […] The higher the MFIR, the stronger the binding.

[3] = target: T2, nfP2X7 CAR 1; experiment: flow cytometry, anti-His-FITC, MFI on EGFR+ (CAR+) T cells over background 0.44
Experimental: as §2

[4] = target: T1, CD19; experiment: flow cytometry, JeKo-1 cells, bridge at saturating conc., anti-His-FITC detection
Experimental: as §1

[5] = target: T1, CD19; experiment: flow cytometry, JeKo-1 cells, anti-His-FITC detection, MFI over no-bridge control
Experimental: as §1

[6] = target: T2, nfP2X7 CAR 1; experiment: flow cytometry, anti-His-FITC, MFI on EGFR+ (CAR+) over EGFR- (CAR-) T cells
Experimental: as §2

[7] = target: T1, CD19; experiment: flow cytometry, JeKo-1 cells, BIL03s-AF647 detection, MFI over no-bridge control
Experimental: as §1

[8] = target: T3, nfP2X7 CAR 1; experiment: flow cytometry, CAR T cells, anti-His-FITC, EGFR+ MFI over background 0.4
T3 construct: Expressed on T cells with truncated EGFR as marker gene; also called anti-nfP2X7 receptor CAR 1; nfP2X7 targeted CAR on EGFR+ T cells
Procedure, shortened: (§3)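 CAR T cells incubated with BRiDGE variants at saturating concentrations; bound BRiDGE detected with anti-His-FITC by flow cytometry. EGFR marks CAR expression. Value is median fluorescence intensity on EGFR+ (CAR+) cells divided by that on EGFR− (CAR−) cells.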

[9] = target: T4, CD33 (UniProt P20138 18-364, limits assumed); experiment: flow cytometry, MOLM-13 cells, anti-His-FITC detection, ratio to no bridge
T4 construct: whole, on cells; also called Siglec-3; CD33 on MOLM-13 cells
T4 sequence (P20138 18-364 limits assumed): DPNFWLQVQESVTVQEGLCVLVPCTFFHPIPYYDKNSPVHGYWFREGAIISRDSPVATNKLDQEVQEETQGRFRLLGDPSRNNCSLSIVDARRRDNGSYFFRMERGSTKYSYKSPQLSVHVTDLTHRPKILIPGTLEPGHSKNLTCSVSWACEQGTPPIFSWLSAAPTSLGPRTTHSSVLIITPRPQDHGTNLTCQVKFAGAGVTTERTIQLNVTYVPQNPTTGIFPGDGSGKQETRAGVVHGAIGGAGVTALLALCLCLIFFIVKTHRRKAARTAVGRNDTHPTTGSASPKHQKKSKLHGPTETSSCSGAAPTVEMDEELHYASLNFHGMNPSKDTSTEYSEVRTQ
Experimental: as §1, with “MOLM-13” for “JeKo-1”, “CD33 BRIDGE” for “CD19 BRiDGE”, “secondary” for “secondary bound”, “BLItz:” for “BLitz:”

[10] = target: T3, nfP2X7 CAR 1; experiment: flow cytometry, nfP2X7 CAR T cells (EGFR+), anti-His-FITC detection
[11] = target: T4, CD33; experiment: flow cytometry, MOLM-13 cells, anti-His-FITC detection
Experimental: as §1, with “MOLM-13” for “JeKo-1”, “CD33 BRIDGE” for “CD19 BRiDGE”, “secondary” for “secondary bound”, “BLItz:” for “BLitz:”

[12] = target: T3, nfP2X7 CAR 1; experiment: flow cytometry, CAR T cells, anti-His-FITC, EGFR+ over EGFR- cells
Procedure, shortened: as §3

Binder | MFI Bil03 AF647 [1] | MFI HisTag FITC in EGFR+ Population [2] | HisTag MFI Ratio (background 0.44) [3] | MFI HisTag FITC [4] | MFIR HisTag FITC [5] | HisTag MFI Ratio of EGFR+/EGFR- [6] | MFIR BIL03 AF647 [7] | HisTag MFI Ratio (background 0.4) [8] | MFIR HisTag FITC [9] | MFI HisTag FITC in EGFR+ Population [10] | MFI HisTag FITC [11] | HisTag MFI Ratio of EGFR+/EGFR- [12]
CD19 BRIDGE variant B3 (Fab, V domains shown) VH: EVQLVESGGGLVKPGGSLKLSCAASGYTFTSYVMHWVRQAPGKGLEWIGYINPYNDGTKYNEKFQGRVTISSDKSISTAYMELSSLRSEDTAMYYCARGTYYYGTRVFDYWGQGTLVTVSS VL: DIVMTQSPATLSLSPGERATLSCRSSKSLQNVNGNTYLYWFQQKPGQSPQLLIYRMSNLNSGVPDRFSGSGSGTEFTLTISSLEPEDFAVYYCMQHLEYPITFGAGTKLEIKR | 5.43 | 2.05 | 4.7 | 3.63 | 4.71 | 4.1 | 11.8 |  |  |  |  | 
CD19 BRIDGE variant B2 (Fab, V domains shown) VH: EVQLVESGGGLVKPGGSLKLSCAASGYTFTSYVMHWVRQAPGKGLEWIGYINPYNDGTKYNEKFQGRVTISSDKSISTAYMELSSLRSEDTAMYYCARGTYYYGTRVFDYWGQGTLVTVSS VL: DIVMTQSPATLSLSPGERATLSCRSSKSLQNVNGNTYLYWFQQKPGQSPQLLIYRMSNLNSGVPDRFSGSGSGTEFTLTISSLEPEDFAVYYCMQHLEYPITFGAGTKLEIKR | 4.17 | 2.07 | 4.7 | 3.47 | 4.51 | 4.1 | 9.07 |  |  |  |  | 

Results, then the binder that gave them:

MFI Bil03 AF647 [1] | MFI HisTag FITC in EGFR+ Population [2] | HisTag MFI Ratio (background 0.44) [3] | MFI HisTag FITC [4] | MFIR HisTag FITC [5] | HisTag MFI Ratio of EGFR+/EGFR- [6] | MFIR BIL03 AF647 [7] | HisTag MFI Ratio (background 0.4) [8] | MFIR HisTag FITC [9] | MFI HisTag FITC in EGFR+ Population [10] | MFI HisTag FITC [11] | HisTag MFI Ratio of EGFR+/EGFR- [12] | Binder
7.57 | 2.22 | 5 | 3.31 | 4.3 | 4 | 16.5 |  |  |  |  |  | CD19 BRIDGE variant B7 (Fab, V domains shown) VH: EVQLVESGGGLVKPGGSLKLSCAASGYTFTSYVMHWVRQAPGKGLEWIGYINPYNDGTKYNEKFQGRVTISSDKSISTAYMELSSLRSEDTAMYYCARGTYYYGTRVFDYWGQGTLVTVSS VL: DIVMTQSPATLSLSPGERATLSCRSSKSLQNVNGNTYLYWFQQKPGQSPQLLIYRMSNLNSGVPDRFSGSGSGTEFTLTISSLEPEDFAVYYCMQHLEYPITFGAGTKLEIKR
 |  |  |  |  |  |  | 4 | 10.6 | 1.58 | 7.12 | 4 | CD33 PURIFIED BRIDGE (Fab, V domains shown, also called old variant; original E200 CD33 Fab bridging molecule derived from lintuzumab) VH: QVQLVQSGAEVKKPGSSVKVSCKASGYTFTDYNMHWVRQAPGQGLEWIGYIYPYNGGTGYNQKFKSKATITADESTNTAYMELSSLRSEDTAVYYCARGRPAMDYWGQGTLVTVSS VL: DIQMTQSPSSLSASVGDRVTITCRASESVDNYGISFMNWFQQKPGKAPKLLIYAASNQGSGVPSRFSGSGSGTDFTLTISSLQPDDFATYYCQQSKEVPWTFGQGTKVEIKR
